± gives the uncertainty stated by the source.
B1: Tumor protein p73, residues 487 to 549; numbered along this chain, O15350 (parent)
chain: YHADPSLVSFLTGLGCPNCIEYFTSQGLQSIYHLQNLTIEDLGALKIPEQYRMTIWRGLQDLK

Variants of: B1
Assay: abundance fitness (aPCA) (normalised: wild type 0, dead -1); higher = more abundant; growth selection in yeast, the domain comes from the species named
Conditions: Homo sapiens

Abundance fitness: each site, then its substitutions
V8: D 0.143 ± 0.15, G 0.228 ± 0.032, Y -0.016 ± 0.086, T 0.117 ± 0.046, M 0.137 ± 0.04, F -0.045 ± 0.079, S 0.005 ± 0.042, W 0.083 ± 0.036, Q 0.037 ± 0.046, E 0.222 ± 0.043, N -0.052 ± 0.056, H -0.024 ± 0.079, A 0.106 ± 0.061, R 0.132 ± 0.033, C 0.006 ± 0.058, P 0 ± 0.064, L 0.137 ± 0.034, I -0.053 ± 0.05, K 0.235 ± 0.04
A3: Q 0.311 ± 0.045, G 0.141 ± 0.038, W 0.209 ± 0.037, Y 0.201 ± 0.072, H 0.101 ± 0.094, P 0.361 ± 0.099, F 0.36 ± 0.11, N 0.024 ± 0.16, K 0.358 ± 0.042, I 0.405 ± 0.089, S 0.268 ± 0.054, L 0.311 ± 0.042, M 0.349 ± 0.12, E 0.197 ± 0.063, D 0.08 ± 0.17, R 0.326 ± 0.028, C 0.426 ± 0.062, V 0.137 ± 0.051
L14: M -0.136 ± 0.057, V 0.024 ± 0.031, A -0.193 ± 0.042, W -0.542 ± 0.073, Y -0.315 ± 0.095, S -0.407 ± 0.063, P -0.949 ± 0.18, H -0.231 ± 0.082, E -0.53 ± 0.071, F -0.493 ± 0.058, G -0.989 ± 0.079, K -0.174 ± 0.1, Q -0.298 ± 0.077, I 0.009 ± 0.051, D -0.923 ± 0.18, T -0.307 ± 0.066, R -0.353 ± 0.038
L11: G -0.923 ± 0.075, N -1.12 ± 0.37, Y -0.518 ± 0.1, M -0.115 ± 0.043, A -0.599 ± 0.07, E -0.825 ± 0.1, C -0.13 ± 0.049, I 0.039 ± 0.071, F -0.031 ± 0.14, P -1.17 ± 0.25, Q -0.053 ± 0.11, H -0.806 ± 0.34, S -1 ± 0.1, T -0.858 ± 0.13, K -0.681 ± 0.089, D -1.14 ± 0.22, W -0.914 ± 0.15
S9: V -0.373 ± 0.039, H -0.345 ± 0.16, W -0.411 ± 0.048, K -0.017 ± 0.042, N 0.086 ± 0.074, R 0.048 ± 0.023, T -0.052 ± 0.049, P -0.134 ± 0.054, F -0.194 ± 0.056, M -0.207 ± 0.054, G 0.103 ± 0.028, D -0.114 ± 0.098, L -0.131 ± 0.039, I -0.347 ± 0.13, Y -0.237 ± 0.04, Q 0.095 ± 0.04, A -0.101 ± 0.043, C -0.312 ± 0.059, E -0.019 ± 0.04
P5: V 0.159 ± 0.037, A 0.11 ± 0.063, L 0.073 ± 0.035, E 0.24 ± 0.049, T 0.211 ± 0.04, D 0.201 ± 0.07, K 0.238 ± 0.036, W 0.021 ± 0.043, G 0.134 ± 0.038, I 0.209 ± 0.057, R 0.085 ± 0.033, F 0.046 ± 0.21, Q -0.005 ± 0.055, M 0.334 ± 0.038, H 0.003 ± 0.064, C 0.167 ± 0.11, N 0.225 ± 0.084
C16: Y -0.078 ± 0.069, F -0.144 ± 0.084, K -0.322 ± 0.062, H -0.047 ± 0.054, S -0.389 ± 0.059, A -0.176 ± 0.066, G -0.754 ± 0.091, T -0.163 ± 0.05, D -0.923 ± 0.23, W -0.773 ± 0.072, Q -0.504 ± 0.092, R -0.407 ± 0.041, I 0.146 ± 0.12, M 0.002 ± 0.065, E -0.8 ± 0.2, P -1.01 ± 0.27
P17: K 0.075 ± 0.04, Q 0.106 ± 0.053, E 0.047 ± 0.039, L 0.023 ± 0.034, Y 0.017 ± 0.063, A -0.081 ± 0.043, I -0.122 ± 0.087, H -0.031 ± 0.1, C -0.08 ± 0.051, M -0.007 ± 0.05, V 0.007 ± 0.035, D -0.044 ± 0.051, R -0.024 ± 0.03, S 0.015 ± 0.031, W -0.14 ± 0.039, T 0.028 ± 0.048, F 0.036 ± 0.061, N -0.154 ± 0.14
G13: M -0.075 ± 0.048, A -0.021 ± 0.035, F -0.172 ± 0.056, T -0.012 ± 0.047, R 0.008 ± 0.031, H 0.11 ± 0.058, N 0.216 ± 0.22, P -0.183 ± 0.064, C -0.142 ± 0.077, L -0.124 ± 0.035, E 0.047 ± 0.052, S 0.034 ± 0.038, W -0.315 ± 0.051, Y -0.185 ± 0.093, I -0.138 ± 0.071, Q 0.024 ± 0.047, V -0.223 ± 0.054
D4: W 0.181 ± 0.18, N -0.15 ± 0.092
G15: Q -0.124 ± 0.037, T -0.549 ± 0.055, K -0.062 ± 0.058, I -0.937 ± 0.27, M -0.463 ± 0.059, S -0.17 ± 0.036, F -0.508 ± 0.097, Y -0.462 ± 0.084, W -0.854 ± 0.099, V -0.606 ± 0.059, N -0.002 ± 0.053, C -0.226 ± 0.063, A -0.124 ± 0.043, H -0.26 ± 0.13, L -0.616 ± 0.065, R -0.153 ± 0.034
I20: R -0.111 ± 0.033, N -0.282 ± 0.044, V 0.009 ± 0.029, A -0.061 ± 0.042, T -0.003 ± 0.036, M 0.003 ± 0.038, F -0.257 ± 0.052, W -0.36 ± 0.05, C -0.074 ± 0.038, E -0.057 ± 0.047, P -0.626 ± 0.056, S -0.049 ± 0.03, K -0.185 ± 0.05, G -0.269 ± 0.036, H -0.069 ± 0.044, Q -0.082 ± 0.046, Y -0.1 ± 0.038, L 0.038 ± 0.031
T12: L -0.146 ± 0.034, P -1.1 ± 0.15, M 0.021 ± 0.045, F -0.092 ± 0.078, N 0.117 ± 0.083, D 0.236 ± 0.099, V -0.061 ± 0.028, G 0.1 ± 0.039, S -0.05 ± 0.042, E 0.114 ± 0.044, H 0.01 ± 0.061, C -0.386 ± 0.065, R 0.058 ± 0.028, W -0.216 ± 0.035, I -0.032 ± 0.04, K 0.087 ± 0.051, Q 0.031 ± 0.045
E21: D 0.012 ± 0.065, C -0.182 ± 0.07, G 0.034 ± 0.035, H -0.089 ± 0.061, A -0.051 ± 0.04, I -0.138 ± 0.052
F10: R -0.962 ± 0.079, A -0.535 ± 0.069, N -0.804 ± 0.35, L -0.307 ± 0.038, W -0.296 ± 0.037, T -0.823 ± 0.11, P -0.748 ± 0.24, Q -0.865 ± 0.21, C -0.588 ± 0.14, Y -0.294 ± 0.074, D -1.06 ± 0.16, M -0.424 ± 0.053, K -1.32 ± 0.31, S -0.867 ± 0.083, H -0.971 ± 0.18, E -1.02 ± 0.17
S6: T -0.052 ± 0.04, V -0.027 ± 0.043, C 0.036 ± 0.067, R 0.013 ± 0.035, K -0.07 ± 0.066, L -0.15 ± 0.056, H -0.077 ± 0.089, E 0.126 ± 0.048, N -0.076 ± 0.21, G 0.136 ± 0.027, F -0.095 ± 0.072, M -0.031 ± 0.06, A 0.041 ± 0.052, D 0.017 ± 0.14, W -0.212 ± 0.061, Q 0.064 ± 0.066, Y -0.197 ± 0.16
N18: P -0.288 ± 0.053, Y -0.167 ± 0.062, A 0.042 ± 0.038, M -0.163 ± 0.047, S -0.12 ± 0.042, H 0.04 ± 0.082, Q -0.03 ± 0.037, E 0.033 ± 0.042, L -0.139 ± 0.035, C -0.125 ± 0.095, G 0.061 ± 0.039, I 0.005 ± 0.079, K -0.163 ± 0.045, V -0.055 ± 0.043, D 0.049 ± 0.067, T -0.084 ± 0.042
H2: I 0.515 ± 0.097, E 0.066 ± 0.046, L 0.202 ± 0.044, C 0.197 ± 0.096, S 0.274 ± 0.041, A -0.094 ± 0.061, V -0.004 ± 0.043, W 0.119 ± 0.063, Q 0.345 ± 0.058, P 0 ± 0.15, G -0.096 ± 0.045, M 0.301 ± 0.1, R 0.148 ± 0.037, D -0.073 ± 0.095, T 0.273 ± 0.053, F 0.145 ± 0.11, Y -0.031 ± 0.11, N 0.216 ± 0.07
Y1: I 0.336 ± 0.16, M 0.18 ± 0.063, A 0.003 ± 0.28, P 0.161 ± 0.14, Q -0.195 ± 0.093, C -0.172 ± 0.076, D 0.23 ± 0.23, F 0.201 ± 0.078, H -0.075 ± 0.088, S 0.078 ± 0.05, T 0.109 ± 0.13, R -0.175 ± 0.054, L 0.075 ± 0.059, E 0.01 ± 0.063, G -0.285 ± 0.051, K -0.153 ± 0.073, N 0.054 ± 0.13, V 0.173 ± 0.044
C19: M 0.048 ± 0.036, G -0.559 ± 0.049, K -0.726 ± 0.088, H -0.399 ± 0.077, F 0.031 ± 0.13, W -0.454 ± 0.065, V 0.052 ± 0.036, N -0.511 ± 0.13, Y -0.233 ± 0.1, R -0.941 ± 0.06, A -0.033 ± 0.042, E -0.236 ± 0.058, P -0.97 ± 0.12, L 0.047 ± 0.035, I -0.055 ± 0.09, D -0.699 ± 0.18, Q 0.028 ± 0.056
L7: T -0.157 ± 0.053, H -0.969 ± 0.24, P -0.782 ± 0.11, K -0.984 ± 0.16, C -0.4 ± 0.062, Q -1.01 ± 0.12, G -0.936 ± 0.071, E -0.512 ± 0.095, F -0.266 ± 0.073, V -0.049 ± 0.033, S -0.831 ± 0.06, M -0.023 ± 0.04, A -0.257 ± 0.046, W -0.847 ± 0.08, R -1.01 ± 0.074

Reference: the Human Domainome abundance scans (Beltran et al. 2025)
